# Laboratory results as given in PMC1851640.
# T1: StpA (Escherichia coli) (UniProt P0ACG1)
# T1 sequence: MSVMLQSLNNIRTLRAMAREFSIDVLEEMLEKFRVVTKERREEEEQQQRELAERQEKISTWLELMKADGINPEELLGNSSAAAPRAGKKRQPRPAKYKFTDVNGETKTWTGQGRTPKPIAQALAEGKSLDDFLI
# T2: StpA (Escherichia coli, UniProt P0ACG1 1-134)
# T2 sequence: T1 sequence
# B1: 21R+ and duplex- (non-complementary pair) (ssRNA)
# RNA 1: AUGUGGAAAAUCUCUAGCAGU
# RNA 2: CUUUCAUUGGUCGGUCUCUCC
# B2: 21R+/21R- duplex (dsRNA)
# RNA 1: AUGUGGAAAAUCUCUAGCAGU
# RNA 2: ACUGCUAGAGAUUUUCCACAU
# Key:
# StpA (Escherichia coli) = biological target: T1, StpA (Escherichia coli); assay: filter binding
# [1] = test system: G126V-StpA (Escherichia coli); assay: filter binding
# StpA [2] = biological target: T2, StpA; assay: FRET
# StpA [3] = biological target: T2, StpA; assay: filter binding
# StpA [4] = biological target: T2, StpA; assay: filter binding; remark: listed apart in the source
molecule,measurement,setting,value
td mRNA (intronless),Kd,StpA (Escherichia coli),580 nM
sho-sho tdC865U pre-mRNA,binding signal,[1],7 % bound
same,binding signal,StpA (Escherichia coli),27 % bound
td ribozyme RNA,binding signal,StpA (Escherichia coli),70 % bound
sho-sho td pre-mRNA,Kd,StpA (Escherichia coli),730 nM
same,binding signal,StpA (Escherichia coli),17 % bound
B1,binding result,StpA [2],binds
B2,binding result,StpA [3],no binding
AUGUGGAAAAUCUCUAGCAGU (ssRNA) [21R+],binding result,StpA [4],binds
